In paper PMC3034019 (The EMBO Journal, 2011):

B1: EVH2 domain of Dictyostelium discoideum VASP (DdEVH2) (domain or fragment)
chain: GRNALLGSIENFSKGGLKKTVTVDKSAGVPTKTTPSANSAASNAGSEPSSGGSTPAPAPKSSGGGGGGDLMAEVMAKRAKMKAAASQPKEESSAPTPAPTPAPTPAPTPSSTSFKPPQSFSKPATKTAAANKPPSPSLSAPLPSTVANEDLQSLKEEILTEVRKEIQKAKDEILEAIRASQH
B2: WIP-WH2-peptide (WH2 core motif of WASP-interacting protein) (peptide)
peptide: GRNALLSDISKGKKLKKTVT
B3: hGAB peptide (G-actin-binding site of human VASP) (peptide)
peptide: GLAAAIAGAKLRKVSK
B4: DdGAB peptide (G-actin-binding site of Dictyostelium discoideum VASP) (peptide)
peptide: GRNALLGSIENFSKGGLKKTVT

Columns and labels:
[1] = biological target: Oregon-Green-labelled actin monomers (OG-actin) (UniProt P68135 1-377, Oregon-Green (OG) label, position not stated); test: stopped-flow fluorescence kinetics
[2] = biological target: Oregon-Green-labelled actin monomers (OG-actin) (UniProt P68135 1-377, Oregon-Green (OG) label, position not stated); test: other fluorescence titration

Binder	kon [1] [M⁻¹ s⁻¹]	Kd [2] [nM]
B1	5.3e+07	
B2		840
B3		10300
B4		630
